# Test: Solubility of P-1 in water and THF
# Assay type: physicochemical
# Settings: method not described
smiles,measurement,setting,value
O=C(O)[C@H](Cc1ccccc1)NC(=O)[C@H](Cc1ccccc1)N1C(=O)c2ccc3c4ccc5c6c(ccc(c7ccc(c2c37)C1=O)c64)C(=O)N([C@@H](Cc1ccccc1)C(=O)N[C@@H](Cc1ccccc1)C(=O)O)C5=O [P-1],solubility in THF,THF (good solvent),~ 0.1 mM
same,solubility,water (poor solvent),< 0.1 µM

# — paper PMC5573372, “Solvent Assisted Tuning of Morphology of a Peptide-Perylenediimide Conjugate: Helical Fibers to Nano-Rings and their Differential Semiconductivity” (Scientific Reports, 2017)
